Laboratory results taken from publication PMC8512545, “Chitinase Chit62J4 Essential for Chitin Processing by Human Microbiome Bacterium Clostridium paraputrificum J4” (Molecules, 2021).

Tested on: CC(=O)N[C@H]1[C@H](Oc2ccc([N+](=O)[O-])cc2)O[C@H](CO)[C@@H](O[C@@H]2O[C@H](CO)[C@@H](O)[C@H](O)[C@H]2NC(C)=O)[C@@H]1O
Experiment: purified protein
Format: biochemical, Clostridium paraputrificum
Details: 0.1 M citric acid-potassium phosphate pH 5.5, 37 °C

Row | Substance | Km (native enzyme) [mM] | kcat (native enzyme) [s⁻¹] | Km (no added compound) [mM] | kcat (no added compound) [s⁻¹]
1 | crChit62J4 (crude/isolated Chit62J4) (Clostridium paraputrificum) | 0.57 | 13.5 |  | 
2 | rChit62J4 (Clostridium paraputrificum) |  |  | 0.24 ± 0.02 | 31.5 ± 0.9
3 | rChit62J4cat (Clostridium paraputrificum) |  |  | 0.19 ± 0.02 | 31.4 ± 0.8
